According to patent US8673848 (Novartis, dated 2014):
Bridges are numbered along the chain shown (N, C = ends). Where no end group is shown, it is not given here. [ ]: non-standard residue; d: D form. The star is where a group is joined. Palmitoyl = CCCCCCCCCCCCCCCC(=O)*; Cha = N[C@@H](CC1CCCCC1)C(=O)O; pGlu = O=C1CC[C@@H](C(=O)O)N1; NHPhenethyl = c1ccc(CCN*)cc1; Lauroyl = CCCCCCCCCCCC(=O)*; Nle = CCCC[C@H](N)C(=O)O; Api = NC1(C(=O)O)CCNCC1; AEEA = NCCOCCOCC(=O)O; Aib = CC(C)(N)C(=O)O; Inp = O=C(O)C1CCNCC1

T1: human APJ receptor (hAPJ) (human, UniProt P35414 1-380)
T1 sequence (looked up): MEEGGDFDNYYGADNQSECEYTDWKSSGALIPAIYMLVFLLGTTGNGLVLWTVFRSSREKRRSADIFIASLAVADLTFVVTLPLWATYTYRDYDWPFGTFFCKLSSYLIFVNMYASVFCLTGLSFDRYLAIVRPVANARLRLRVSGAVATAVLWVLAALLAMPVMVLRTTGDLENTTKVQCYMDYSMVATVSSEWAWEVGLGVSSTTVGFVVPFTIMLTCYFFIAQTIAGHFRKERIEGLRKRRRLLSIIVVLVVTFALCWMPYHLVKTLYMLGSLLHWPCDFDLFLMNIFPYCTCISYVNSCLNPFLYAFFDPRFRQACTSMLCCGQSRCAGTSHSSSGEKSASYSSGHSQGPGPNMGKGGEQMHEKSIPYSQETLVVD

B1: Example 1: pE-R-P-R-L-K-H-F-G-P-Nle-D-Phenethylamine (peptide)
peptide: [pGlu]RPRLKHFGP[Nle]D-NHPhenethyl
modifications: lactam 6-12
SMILES: CCCC[C@@H]1NC(=O)[C@@H]2CCCN2C(=O)CNC(=O)[C@H](Cc2ccccc2)NC(=O)[C@H](Cc2c[nH]cn2)NC(=O)[C@@H](NC(=O)[C@H](CC(C)C)NC(=O)[C@H](CCCNC(=N)N)NC(=O)[C@@H]2CCCN2C(=O)[C@H](CCCNC(=N)N)NC(=O)[C@@H]2CCC(=O)N2)CCCCNC(=O)C[C@@H](C(=O)NCCc2ccccc2)NC1=O
B2: Example 15: pE-R-P-R-L-C-F-K-G-P-Nle-C-F-OH (peptide)
peptide: [pGlu]RPRLCFKGP[Nle]CF-OH
modifications: disulfide 6-12
SMILES: CCCC[C@@H]1NC(=O)[C@@H]2CCCN2C(=O)CNC(=O)[C@H](CCCCN)NC(=O)[C@H](Cc2ccccc2)NC(=O)[C@@H](NC(=O)[C@H](CC(C)C)NC(=O)[C@H](CCCNC(=N)N)NC(=O)[C@@H]2CCCN2C(=O)[C@H](CCCNC(=N)N)NC(=O)[C@@H]2CCC(=O)N2)CSSC[C@@H](C(=O)N[C@@H](Cc2ccccc2)C(=O)O)NC1=O
B3: Example 20: pE-R-P-R-L-C-H-K-Aib-P-Nle-C-F-OH (peptide)
peptide: [pGlu]RPRLCHK[Aib]P[Nle]CF-OH
modifications: disulfide 6-12
SMILES: CCCC[C@@H]1NC(=O)[C@@H]2CCCN2C(=O)C(C)(C)NC(=O)[C@H](CCCCN)NC(=O)[C@H](Cc2c[nH]cn2)NC(=O)[C@@H](NC(=O)[C@H](CC(C)C)NC(=O)[C@H](CCCNC(=N)N)NC(=O)[C@@H]2CCCN2C(=O)[C@H](CCCNC(=N)N)NC(=O)[C@@H]2CCC(=O)N2)CSSC[C@@H](C(=O)N[C@@H](Cc2ccccc2)C(=O)O)NC1=O
B4: Example 12: pE-R-P-R-L-C-H-K-G-P-Nle-C-Phenethylamine (peptide)
peptide: [pGlu]RPRLCHKGP[Nle]C-NHPhenethyl
modifications: disulfide 6-12
B5: Example 24: Palmitoyl-O2Oc-Q-R-P-R-L-C-H-K-G-P-Nle-C-F-OH (peptide)
peptide: Palmitoyl-[AEEA]QRPRLCHKGP[Nle]CF-OH
modifications: disulfide 7-13
SMILES: CCCCCCCCCCCCCCCC(=O)NCCOCCOCC(=O)N[C@@H](CCC(N)=O)C(=O)N[C@@H](CCCNC(=N)N)C(=O)N1CCC[C@H]1C(=O)N[C@@H](CCCNC(=N)N)C(=O)N[C@@H](CC(C)C)C(=O)N[C@H]1CSSC[C@@H](C(=O)N[C@@H](Cc2ccccc2)C(=O)O)NC(=O)[C@H](CCCC)NC(=O)[C@@H]2CCCN2C(=O)CNC(=O)[C@H](CCCCN)NC(=O)[C@H](Cc2c[nH]cn2)NC1=O
B6: Example 11: p-Isn-R-P-R-L-C-Aib-K-G-P-Nle-C-f-OH (peptide)
peptide: [Inp]RPRLC[Aib]KGP[Nle]C[dF]-OH
modifications: disulfide 6-12; N-terminus assumed
SMILES: CCCC[C@@H]1NC(=O)[C@@H]2CCCN2C(=O)CNC(=O)[C@H](CCCCN)NC(=O)C(C)(C)NC(=O)[C@@H](NC(=O)[C@H](CC(C)C)NC(=O)[C@H](CCCNC(=N)N)NC(=O)[C@@H]2CCCN2C(=O)[C@H](CCCNC(=N)N)NC(=O)C2CCNCC2)CSSC[C@@H](C(=O)N[C@H](Cc2ccccc2)C(=O)O)NC1=O
B7: Example 2: pE-R-P-R-L-K-H-F-G-P-Nle-E-Phenethylamine (peptide)
peptide: [pGlu]RPRLKHFGP[Nle]E
modifications: lactam 6-12 (inferred); not fully specified (C-terminus); printed as pE-R-P-R-L-K-H-F-G-P-Nle-E-Phenethylamine
B8: Example 17: H-R-R-P-R-L-C-H-K-G-P-Nle-C-F-OH (peptide)
peptide: H-RRPRLCHKGP[Nle]CF-OH
modifications: disulfide 6-12
SMILES: CCCC[C@@H]1NC(=O)[C@@H]2CCCN2C(=O)CNC(=O)[C@H](CCCCN)NC(=O)[C@H](Cc2c[nH]cn2)NC(=O)[C@@H](NC(=O)[C@H](CC(C)C)NC(=O)[C@H](CCCNC(=N)N)NC(=O)[C@@H]2CCCN2C(=O)[C@H](CCCNC(=N)N)NC(=O)[C@@H](N)CCCNC(=N)N)CSSC[C@@H](C(=O)N[C@@H](Cc2ccccc2)C(=O)O)NC1=O
B9: Example 22: pE-R-P-R-L-C-H-K-G-P-Nle-C-K(Palmitoyl)-OH (peptide)
peptide: [pGlu]RPRLCHKGP[Nle]CK(Palmitoyl)-OH
modifications: disulfide 6-12
SMILES: CCCCCCCCCCCCCCCC(=O)NCCCC[C@H](NC(=O)[C@@H]1CSSC[C@H](NC(=O)[C@H](CC(C)C)NC(=O)[C@H](CCCNC(=N)N)NC(=O)[C@@H]2CCCN2C(=O)[C@H](CCCNC(=N)N)NC(=O)[C@@H]2CCC(=O)N2)C(=O)N[C@@H](Cc2c[nH]cn2)C(=O)N[C@@H](CCCCN)C(=O)NCC(=O)N2CCC[C@H]2C(=O)N[C@@H](CCCC)C(=O)N1)C(=O)O
B10: Example 16: H-R-P-R-L-C-H-K-G-P-Nle-C-F-OH (peptide)
peptide: H-RPRLCHKGP[Nle]CF-OH
modifications: disulfide 5-11
SMILES: CCCC[C@@H]1NC(=O)[C@@H]2CCCN2C(=O)CNC(=O)[C@H](CCCCN)NC(=O)[C@H](Cc2c[nH]cn2)NC(=O)[C@@H](NC(=O)[C@H](CC(C)C)NC(=O)[C@H](CCCNC(=N)N)NC(=O)[C@@H]2CCCN2C(=O)[C@@H](N)CCCNC(=N)N)CSSC[C@@H](C(=O)N[C@@H](Cc2ccccc2)C(=O)O)NC1=O
B11: Example 25: Lauroyl-O2Oc-Q-R-P-R-L-C-H-K-G-P-Nle-C-F-OH (peptide)
peptide: Lauroyl-[AEEA]QRPRLCHKGP[Nle]CF-OH
modifications: disulfide 7-13
SMILES: CCCCCCCCCCCC(=O)NCCOCCOCC(=O)N[C@@H](CCC(N)=O)C(=O)N[C@@H](CCCNC(=N)N)C(=O)N1CCC[C@H]1C(=O)N[C@@H](CCCNC(=N)N)C(=O)N[C@@H](CC(C)C)C(=O)N[C@H]1CSSC[C@@H](C(=O)N[C@@H](Cc2ccccc2)C(=O)O)NC(=O)[C@H](CCCC)NC(=O)[C@@H]2CCCN2C(=O)CNC(=O)[C@H](CCCCN)NC(=O)[C@H](Cc2c[nH]cn2)NC1=O
B12: Example 23: pE-R-P-R-L-C-K(Palmitoyl)-K-G-P-Nle-C-F-OH (peptide)
peptide: [pGlu]RPRLCK(Palmitoyl)KGP[Nle]CF-OH
modifications: disulfide 6-12
SMILES: CCCCCCCCCCCCCCCC(=O)NCCCC[C@@H]1NC(=O)[C@@H](NC(=O)[C@H](CC(C)C)NC(=O)[C@H](CCCNC(=N)N)NC(=O)[C@@H]2CCCN2C(=O)[C@H](CCCNC(=N)N)NC(=O)[C@@H]2CCC(=O)N2)CSSC[C@@H](C(=O)N[C@@H](Cc2ccccc2)C(=O)O)NC(=O)[C@H](CCCC)NC(=O)[C@@H]2CCCN2C(=O)CNC(=O)[C@H](CCCCN)NC1=O
B13: Example 18: H-Isn-R-P-R-L-C-H-K-G-P-Nle-C-F-OH (peptide)
peptide: H-[Inp]RPRLCHKGP[Nle]CF-OH
modifications: disulfide 6-12
SMILES: CCCC[C@@H]1NC(=O)[C@@H]2CCCN2C(=O)CNC(=O)[C@H](CCCCN)NC(=O)[C@H](Cc2c[nH]cn2)NC(=O)[C@@H](NC(=O)[C@H](CC(C)C)NC(=O)[C@H](CCCNC(=N)N)NC(=O)[C@@H]2CCCN2C(=O)[C@H](CCCNC(=N)N)NC(=O)C2CCNCC2)CSSC[C@@H](C(=O)N[C@@H](Cc2ccccc2)C(=O)O)NC1=O
B14: Example 19: pE-R-P-R-L-C-H-F-G-P-Nle-C-Phenethylamine (peptide)
peptide: [pGlu]RPRLCHFGP[Nle]C-NHPhenethyl
modifications: disulfide 6-12
SMILES: CCCC[C@@H]1NC(=O)[C@@H]2CCCN2C(=O)CNC(=O)[C@H](Cc2ccccc2)NC(=O)[C@H](Cc2c[nH]cn2)NC(=O)[C@@H](NC(=O)[C@H](CC(C)C)NC(=O)[C@H](CCCNC(=N)N)NC(=O)[C@@H]2CCCN2C(=O)[C@H](CCCNC(=N)N)NC(=O)[C@@H]2CCC(=O)N2)CSSC[C@@H](C(=O)NCCc2ccccc2)NC1=O
B15: Example 10: pE-R-P-R-L-C-Aib-K-G-P-Nle-C-f-OH (peptide)
peptide: [pGlu]RPRLC[Aib]KGP[Nle]C[dF]-OH
modifications: disulfide 6-12
SMILES: CCCC[C@@H]1NC(=O)[C@@H]2CCCN2C(=O)CNC(=O)[C@H](CCCCN)NC(=O)C(C)(C)NC(=O)[C@@H](NC(=O)[C@H](CC(C)C)NC(=O)[C@H](CCCNC(=N)N)NC(=O)[C@@H]2CCCN2C(=O)[C@H](CCCNC(=N)N)NC(=O)[C@@H]2CCC(=O)N2)CSSC[C@@H](C(=O)N[C@H](Cc2ccccc2)C(=O)O)NC1=O
B16: Example 21: pE-R-P-R-L-C-H-(4-NH-Isn)-G-P-Nle-C-F-OH (peptide)
peptide: [pGlu]RPRLCH[Api]GP[Nle]CF-OH
modifications: disulfide 6-12
SMILES: CCCC[C@@H]1NC(=O)[C@@H]2CCCN2C(=O)CNC(=O)C2(CCNCC2)NC(=O)[C@H](Cc2c[nH]cn2)NC(=O)[C@@H](NC(=O)[C@H](CC(C)C)NC(=O)[C@H](CCCNC(=N)N)NC(=O)[C@@H]2CCCN2C(=O)[C@H](CCCNC(=N)N)NC(=O)[C@@H]2CCC(=O)N2)CSSC[C@@H](C(=O)N[C@@H](Cc2ccccc2)C(=O)O)NC1=O
B17: Example 13: pE-R-P-R-L-C-H-K-G-P-Nle-C-f-OH (peptide)
peptide: [pGlu]RPRLCHKGP[Nle]C[dF]-OH
modifications: disulfide 6-12
SMILES: CCCC[C@@H]1NC(=O)[C@@H]2CCCN2C(=O)CNC(=O)[C@H](CCCCN)NC(=O)[C@H](Cc2c[nH]cn2)NC(=O)[C@@H](NC(=O)[C@H](CC(C)C)NC(=O)[C@H](CCCNC(=N)N)NC(=O)[C@@H]2CCCN2C(=O)[C@H](CCCNC(=N)N)NC(=O)[C@@H]2CCC(=O)N2)CSSC[C@@H](C(=O)N[C@H](Cc2ccccc2)C(=O)O)NC1=O
B18: Example 14: pE-R-P-R-Cha-C-H-K-G-P-Cha-C-F-OH (peptide)
peptide: [pGlu]RPR[Cha]CHKGP[Cha]CF-OH
modifications: disulfide 6-12
SMILES: N=C(N)NCCC[C@H](NC(=O)[C@@H]1CCCN1C(=O)[C@H](CCCNC(=N)N)NC(=O)[C@@H]1CCC(=O)N1)C(=O)N[C@@H](CC1CCCCC1)C(=O)N[C@H]1CSSC[C@@H](C(=O)N[C@@H](Cc2ccccc2)C(=O)O)NC(=O)[C@H](CC2CCCCC2)NC(=O)[C@@H]2CCCN2C(=O)CNC(=O)[C@H](CCCCN)NC(=O)[C@H](Cc2c[nH]cn2)NC1=O

Each binder was assayed against T1, human APJ receptor (hAPJ) (assay: cell-based or functional assay).

hAPJ Ca2+ Flux EC50	Binder
90.1 nM	B1
3.53 nM	B2
173 nM	B3
2.07 nM	B4
32.6 nM	B5
3.52 nM	B6
133 nM	B7
3.29 nM	B8
42 nM	B9
1.43 nM	B10
24.5 nM	B11
52.4 nM	B12
1.62 nM	B13
8.46 nM	B14
2.54 nM	B15
75.8 nM	B16
2.26 nM	B17
8.83 nM	B18
